B1: N-terminal EF-hand calcium-binding protein 3 (Homo sapiens), Q96P71-2 (parent)
chain: MACAGLLTVCLLRPPAPQPQPQTPRHPQLAPDPGPAGHTLFQDVFRRADKNDDGKLSFEEFQNYFADGVLSLGELQELFSGIDGHLTDNLETEKLCDYFSEHLGVYRPVLAALESLNRAVLAAMDATKLEYERASKVDQFVTRFLLRETVSQLQALQSSLEGASDTLEAQAHGWRSDAESVEAQSRLCGSRRAGRRALRSVSRSSTWSPGSSDTGRSSEAEMQWRLQVNRLQELIDQLECKAPRLEPLREEDLAKGPDLHILMAQRQVQVAEEGLQDFHRALRCYVDFTGAQSHCLHVSAQKMLDGASFTLYEFWQDEASWRRHQQSPGSKAFQRILIDHLRAPDTLTTVFFPASWWIMNNN
partner: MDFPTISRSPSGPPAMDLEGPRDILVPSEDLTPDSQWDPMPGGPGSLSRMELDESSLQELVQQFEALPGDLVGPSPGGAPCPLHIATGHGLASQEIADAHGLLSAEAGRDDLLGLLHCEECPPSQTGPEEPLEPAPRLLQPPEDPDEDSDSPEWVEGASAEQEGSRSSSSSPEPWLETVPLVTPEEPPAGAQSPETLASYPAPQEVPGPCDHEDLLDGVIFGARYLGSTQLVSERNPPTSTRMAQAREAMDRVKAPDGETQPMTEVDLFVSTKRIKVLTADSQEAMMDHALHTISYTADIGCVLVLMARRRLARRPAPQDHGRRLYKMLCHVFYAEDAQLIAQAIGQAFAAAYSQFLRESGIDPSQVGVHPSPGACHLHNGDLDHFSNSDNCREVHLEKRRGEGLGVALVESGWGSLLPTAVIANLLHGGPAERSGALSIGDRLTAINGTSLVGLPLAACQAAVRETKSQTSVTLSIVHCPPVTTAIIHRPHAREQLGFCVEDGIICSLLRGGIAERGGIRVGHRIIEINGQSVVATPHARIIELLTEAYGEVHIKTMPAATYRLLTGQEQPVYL

Variants of: B1
Conditions: with apba3_human APBA3, O96018
In the case of H324A, the “effect of a mutation on the interaction” value is reported as “with no effect”.
